Results taken from patent publication US20210380703A1 (RIGEL PHARMACEUTICALS, published 2021).
Residue numbers refer to the chain shown, from its start.

B1: 371_E07 (antibody, V domains shown)
VH: EVQLLESGGGLVQPGGSLRLSCAASGFTFDSYSMNWVRQAPGKGLEWVAGINYNGGYTSYADSVKGRFTISRDNSKNTLYLQMNSLRAEDTAVYYCARGANWHDTALDYWGQGTLVTVSS
VL: DIQMTQSPSSLSASVGDRVTITCRASQSIISYLNWYQQKPGKAPKLLIYAATSLASGVPSRFSGSGSGTDFTLTISSLQPEDFATYYCQQSYESPLTFGGGTKVEIK
notes: Group III
B2: 371_E10 (antibody, V domains shown)
VH: B1 VH
VL: B1 VL with I30S, S31T, A51V, L54R, E93N
notes: Group III
B3: 371_F10 (antibody, V domains shown)
VH: B1 VH with S33G, A49S, G55S
VL: B1 VL with I30S, L47V, A51V, L54R
notes: Group III
B4: 371_F11 (antibody, V domains shown)
VH: B1 VH with D30S, A49S
VL: B1 VL with L33V, A51V, L54R, E93D, S94L
notes: Group III
B5: 371_G02 (antibody, V domains shown)
VH: B1 VH with S33G, G50S, A106H
VL: B1 VL with I30L, L54R, E93D, S94L
notes: Group III
B6: 371_G04 (antibody, V domains shown)
VH: B1 VH with A49S, T58K
VL: B1 VL with I30L, A55H
notes: Group III
B7: 371_G09 (antibody, V domains shown)
VH: B1 VH with D30S, G50N, S59G
VL: B1 VL with I30L, L47V, L54R, Y92D, E93S, S94T
notes: Group III
B8: 371_G11 (antibody, V domains shown)
VH: B1 VH with D30S, S33G, A49S, G50N, G55S
VL: B1 VL with I30L, L33V, E93D
notes: Group III
B9: 371_H04 (antibody, V domains shown)
VH: B1 VH with D30S, S33G, A49S, G50N, S59G
VL: B1 VL with I30L, S31T, L54R, E93N
notes: Group III
B10: 371_H05 (antibody, V domains shown)
VH: B1 VH with D30S, S33G, A49S, G55S, T58K
VL: B1 VL with E93S, S94L
notes: Group III
B11: 371_H06 (antibody, V domains shown)
VH: B1 VH with S33G, A49S
VL: B1 VL with I30S, L47V, A51V, L54R, E93D, S94L
notes: Group III
B12: 371_H08 (antibody, V domains shown)
VH: B1 VH with D30S, S33G, G50S, T58K, S59G, A106H
VL: B1 VL with L33V, L47V, A51V, L54R, E93D, S94T
notes: Group III
B13: 371_H10 (antibody, V domains shown)
VH: B1 VH with D30S, G55S, T58K, A106H
VL: B1 VL with I30S, S31T, L54R, A55H, S94N
notes: Group III
B14: 372_B02 (antibody, V domains shown)
VH: B1 VH with D30S, A49S, G55S
VL: B1 VL with I30L, L33V, A51V, S94T
notes: Group III
B15: 372_C06 (antibody, V domains shown)
VH: B1 VH with D30S, S31D, A49S
VL: B1 VL with I30V, L33V, L54R, E93S
notes: Group III
B16: 372_D03 (antibody, V domains shown)
VH: B1 VH with D30S, G55S, T58K
VL: B1 VL with I30L, L33V, L47V, A51V, L54R, A55H, E93D
notes: Group III
B17: 372_E01 (antibody, V domains shown)
VH: B1 VH with S31D, A49S, T58K, S59G
VL: B1 VL with I30V, L47V, L54R, A55H, E93D
notes: Group III
B18: 372_G12 (antibody, V domains shown)
VH: B1 VH with S59G, A106H
VL: B1 VL with I30L, S31T, L47V, L54R, A55H, E93D
notes: Group III
B19: 373_A01 (antibody, V domains shown)
VH: B1 VH with D30S, S33G, A49S, G50N, S59G, A106H
VL: B1 VL with I30V, S31T, L47V, A51T, L54R, E93N, S94L
notes: Group III
B20: 373_A03 (antibody, V domains shown)
VH: B1 VH with D30S, S31D, G50N, S59G
VL: B1 VL with I30L, L47V, L54R, E93D, S94N
notes: Group III
B21: 373_A05 (antibody, V domains shown)
VH: B1 VH with D30S, S31D, A49S, G55S, T58K, A106H
VL: B1 VL with I30L, L33V, L47V, L54R, A55H
notes: Group III
B22: 373_A09 (antibody, V domains shown)
VH: B1 VH
VL: B1 VL with I30L, S31T, E93D, S94T
notes: Group III
B23: 373_A11 (antibody, V domains shown)
VH: B1 VH with D30S, S31N, S33G, G50N, S59G
VL: B1 VL with I30L, S31T, L54R, E93D, S94L
notes: Group III
B24: 373_A12 (antibody, V domains shown)
VH: B1 VH with D30S, A49S, G50S
VL: B1 VL with I30L, S31T, L47V, L54R, E93D, S94T
notes: Group III
B25: 373_B05 (antibody, V domains shown)
VH: B1 VH with D30S, S31D, A49S, G50N, T58K
VL: B1 VL with I30V, S31T, L47V, L54R, E93S, S94N
notes: Group III
B26: 373_B07 (antibody, V domains shown)
VH: B1 VH with A49S
VL: B1 VL with I30L, S31T, L33V, L47V, L54R, S94L
notes: Group III
B27: 373_C03 (antibody, V domains shown)
VH: B1 VH with D30S, A49S, T58K
VL: B1 VL with I30V, S31T, L47V, L54R, E93D
notes: Group III
B28: 373_C07 (antibody, V domains shown)
VH: B1 VH with G55S, A106H
VL: B1 VL with I30L, S31T, L47V, L54R, S94T
notes: Group III
B29: 373_C10 (antibody, V domains shown)
VH: B1 VH with D30S
VL: B1 VL with I30L, S31T, L33V, L54R, E93D, S94N
notes: Group III
B30: 373_D03 (antibody, V domains shown)
VH: B1 VH with D30S, A49S
VL: B1 VL with I30V, E93D, S94T
notes: Group III
B31: 373_D12 (antibody, V domains shown)
VH: B1 VH with A49S, G50S, G55S, T58K, S59G, A106H
VL: B1 VL with I30L, L33V, L54R, E93S, S94L
notes: Group III
B32: 373_E10 (antibody, V domains shown)
VH: B1 VH with D30S, S31D, A49S
VL: B1 VL with I30L, S31T, L33V, L47V, L54R, A55H, S94T
notes: Group III
B33: 373_F08 (antibody, V domains shown)
VH: B1 VH with D30S, A49S
VL: B1 VL with I30L, S31T, L54R, E93D, S94T
notes: Group III
B34: 373_F11 (antibody, V domains shown)
VH: B1 VH with S33G, N35H, A49S, G55S, A106H
VL: B1 VL with I30V, L33V, L54R, E93N, S94L
notes: Group III
B35: 373_F12 (antibody, V domains shown)
VH: B1 VH with D30S, A49S, G50N, S59G
VL: B1 VL with I30S, S31T, L47V, L54R, S94T
notes: Group III
B36: 373_G08 (antibody, V domains shown)
VH: B1 VH with A49S, G50N
VL: B1 VL with I30L, S31T, E93D
notes: Group III

target: T1, biotinylated goat anti-human kappa light chain; experiment: ELISA, positive control
T1 construct: positive control of the ELISA
Summary of the method: (§1)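 ELISA measured binding of ACVR2A-specific monoclonal antibodies to human and mouse ACVR2A. Biotinylated goat anti-human kappa light chain served as positive control and human Fc as negative control.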
Further: test concentration or dose not given here.

In order of rising optical density:
1. B19  2.95 OD
2. B21  3.03 OD
3. B35  3.06 OD
4. B20  3.08 OD
5. B23  3.09 OD
6. B24  3.09 OD
7. B22  3.11 OD
8. B30  3.18 OD
9. B32  3.2 OD
10. B31  3.21 OD
11. B33  3.21 OD
12. B25  3.23 OD
13. B29  3.23 OD
14. B10  3.27 OD
15. B36  3.28 OD
16. B26  3.3 OD
17. B27  3.3 OD
18. B28  3.3 OD
19. B34  3.32 OD
20. B1  3.44 OD
21. B12  3.47 OD
22. B2  3.49 OD
23. B15  3.49 OD
24. B18  3.5 OD
25. B3  3.53 OD
26. B6  3.54 OD
27. B13  3.55 OD
28. B7  3.58 OD
29. B9  3.58 OD
30. B16  3.6 OD
31. B17  3.6 OD
32. B5  3.67 OD
33. B8  3.67 OD
34. B14  3.67 OD
35. B4  3.68 OD
36. B11  3.7 OD

target: T2, mouse ACVR2A (mouse, UniProt P27038 20-135, limits assumed); experiment: ELISA
T2 construct: coated antigen of the initial ELISA
Summary of the method: as §1

T2 sequence (P27038 20-135 limits assumed): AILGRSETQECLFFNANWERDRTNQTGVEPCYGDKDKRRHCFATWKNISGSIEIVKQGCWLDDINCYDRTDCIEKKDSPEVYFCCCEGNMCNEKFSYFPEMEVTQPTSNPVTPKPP

In order of rising optical density:
1. B10  1.25 OD
2. B12  2.04 OD
3. B3  2.31 OD
4. B13  2.55 OD
5. B18  2.73 OD
6. B8  2.75 OD
7. B2  3.05 OD
8. B5  3.06 OD
9. B7  3.07 OD
10. B11  3.11 OD
11. B31  3.21 OD
12. B35  3.22 OD
13. B4  3.25 OD
14. B16  3.29 OD
15. B24  3.31 OD
16. B17  3.34 OD
17. B1  3.35 OD
18. B21  3.42 OD
19. B34  3.46 OD
20. B19  3.48 OD
21. B9  3.51 OD
22. B14  3.51 OD
23. B25  3.53 OD
24. B15  3.54 OD
25. B6  3.58 OD
26. B28  3.58 OD
27. B26  3.61 OD
28. B22  3.62 OD
29. B20  3.63 OD
30. B32  3.64 OD
31. B27  3.65 OD
32. B29  3.65 OD
33. B36  3.67 OD
34. B23  3.68 OD
35. B30  3.69 OD
36. B33  3.7 OD

target: T3, human ACVR2A (human, UniProt P27037 20-135, limits assumed); experiment: ELISA
T3 construct: coated antigen of the initial ELISA; also called activin receptor, type II A
Summary of the method: as §1

T3 sequence (P27037 20-135 limits assumed): as the sequence (P27038 20-135 limits assumed) above, with R20K, I73V counted along it

In order of rising optical density:
1. B10  1.2 OD
2. B12  1.66 OD
3. B13  2.19 OD
4. B3  2.34 OD
5. B18  2.41 OD
6. B7  2.75 OD
7. B8  2.84 OD
8. B11  3.03 OD
9. B4  3.04 OD
10. B16  3.04 OD
11. B2  3.06 OD
12. B1  3.09 OD
13. B5  3.12 OD
14. B14  3.17 OD
15. B19  3.18 OD
16. B15  3.21 OD
17. B35  3.25 OD
18. B9  3.26 OD
19. B17  3.34 OD
20. B34  3.35 OD
21. B31  3.4 OD
22. B21  3.45 OD
23. B28  3.57 OD
24. B24  3.59 OD
25. B25  3.59 OD
26. B6  3.62 OD
27. B20  3.65 OD
28. B29  3.65 OD
29. B36  3.65 OD
30. B22  3.66 OD
31. B26  3.66 OD
32. B27  3.69 OD
33. B32  3.72 OD
34. B30  3.75 OD
35. B23  3.76 OD
36. B33  3.76 OD
